# Assay results taken from patent publication US20190016794A1 (Boehringer Ingelheim, published 2019).
# Several values for one entry are separate records, joined by “and”; a condition that tells them apart may be missing. Equal values may be shown once.
# T1: recombinant human IL23 (human, UniProt P29460 23-328)
# T1 sequence 1: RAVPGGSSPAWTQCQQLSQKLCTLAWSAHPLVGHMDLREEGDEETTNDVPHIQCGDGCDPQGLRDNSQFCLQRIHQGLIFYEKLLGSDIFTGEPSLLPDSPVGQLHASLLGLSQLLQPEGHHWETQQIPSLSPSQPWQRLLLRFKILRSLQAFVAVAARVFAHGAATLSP
# T1 sequence 2: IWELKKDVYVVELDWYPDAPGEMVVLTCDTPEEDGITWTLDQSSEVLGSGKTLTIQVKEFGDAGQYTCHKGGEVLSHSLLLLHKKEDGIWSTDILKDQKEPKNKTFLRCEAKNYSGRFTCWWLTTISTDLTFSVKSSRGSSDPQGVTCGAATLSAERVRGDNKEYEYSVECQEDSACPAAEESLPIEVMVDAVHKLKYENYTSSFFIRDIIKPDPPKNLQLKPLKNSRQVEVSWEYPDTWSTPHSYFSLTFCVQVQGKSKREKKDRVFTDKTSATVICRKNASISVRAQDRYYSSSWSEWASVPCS
# T2: recombinant cynomolgus IL23 (cynomolgus)
# T2 chain 1: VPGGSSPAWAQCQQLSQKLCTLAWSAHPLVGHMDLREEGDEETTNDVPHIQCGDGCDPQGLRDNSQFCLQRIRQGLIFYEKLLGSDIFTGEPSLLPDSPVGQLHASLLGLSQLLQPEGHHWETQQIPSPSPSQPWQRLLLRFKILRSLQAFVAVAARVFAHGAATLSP
# T2 chain 2: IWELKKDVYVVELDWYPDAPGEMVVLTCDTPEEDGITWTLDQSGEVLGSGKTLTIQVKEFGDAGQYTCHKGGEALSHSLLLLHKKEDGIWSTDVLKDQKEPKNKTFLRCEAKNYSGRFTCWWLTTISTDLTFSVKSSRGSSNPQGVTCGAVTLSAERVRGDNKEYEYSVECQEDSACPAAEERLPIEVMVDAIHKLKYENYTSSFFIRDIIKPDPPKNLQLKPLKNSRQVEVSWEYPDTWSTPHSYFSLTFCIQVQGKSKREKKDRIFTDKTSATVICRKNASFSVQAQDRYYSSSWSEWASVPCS
# Key:
# recombinant human IL23 [1] = target: T1, recombinant human IL23; test: cell-based or functional assay
# [2] = target: T2, recombinant cynomolgus IL23; test: cell-based or functional assay
# recombinant human IL23 [3] = target: T1, recombinant human IL23; test: cell-based or functional assay; remark: listed apart in the source
# cynomolgus TNF-alpha = cynomolgus TNF-alpha (cynomolgus, UniProt P79337 77-233, limits assumed); test: cell-based or functional assay
# Chain of cynomolgus TNF-alpha (P79337 77-233 limits assumed): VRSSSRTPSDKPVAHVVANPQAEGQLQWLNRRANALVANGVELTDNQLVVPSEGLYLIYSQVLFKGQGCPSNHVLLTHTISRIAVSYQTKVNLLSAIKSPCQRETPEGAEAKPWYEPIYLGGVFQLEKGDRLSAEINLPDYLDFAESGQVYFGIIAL
# human TNF-alpha [4] = target: T3, human TNF-alpha (human, UniProt P01375 77-233); test: cell-based or functional assay
# T3 sequence (P01375 77-233 limits assumed): as the sequence (P79337 77-233 limits assumed) above, with V37L, T44R, N72T, L138R counted along it
# recombinant human IL23 [5] = target: T1, recombinant human IL23; test: cell-based or functional assay; remark: listed apart in the source
# recombinant human IL23 [6] = target: T1, recombinant human IL23; test: cell-based or functional assay; remark: listed apart in the source
# human TNF-alpha [7] = target: T3, human TNF-alpha; test: cell-based or functional assay; remark: listed apart in the source
# human TNF-alpha [8] = target: T3, human TNF-alpha; test: cell-based or functional assay; remark: listed apart in the source
# human TNF-alpha [9] = target: T3, human TNF-alpha; test: cell-based or functional assay; remark: listed apart in the source
# recombinant human IL23 [10] = target: T1, recombinant human IL23; test: cell-based or functional assay; remark: listed apart in the source
# recombinant human IL23 [11] = target: T1, recombinant human IL23; test: cell-based or functional assay; remark: listed apart in the source
# membrane bound TNF-alpha [12] = target: T4, membrane bound TNF-alpha; test: flow cytometry, mTNF-transfected CHO cells (geomean)
# T4 construct: whole, on cells; also called mTNF; membrane expressed TNF-alpha
# T4 sequence (P01375 whole entry): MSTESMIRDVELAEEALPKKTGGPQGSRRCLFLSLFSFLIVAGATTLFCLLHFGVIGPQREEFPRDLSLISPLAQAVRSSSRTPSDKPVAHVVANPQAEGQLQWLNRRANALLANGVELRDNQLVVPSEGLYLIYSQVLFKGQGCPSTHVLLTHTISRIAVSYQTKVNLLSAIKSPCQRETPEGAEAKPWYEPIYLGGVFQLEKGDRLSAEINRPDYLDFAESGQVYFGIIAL
# Procedure: (§1) All reagents were prepared in flow cytometry staining buffer (BioLegend). Membrane expressed TNF-alpha transfected cell lines (Jurkat and CHO) and parental cell lines were harvested from tissue culture vessels, washed, counted and resuspended to 1×10̂6 cells/ml in flow cytometry staining buffer. One hundred microliters of the cell suspension was added to 96 well microtiter plates and placed on ice. Titrations of test compounds were prepared and 50 uL was added to the cells. After sixty minute incubation on ice, the cell+test compounds were washed and 50 uL of a secondary antibody (Jackson ImmunoResearch) was added. The samples were incubated in the dark, at 4 C, for 60 minutes, followed by washes. After a final wash the cells were resuspended in 60 uL of fixative (BD Bioscience). Median fluorescence was determined for each sample in a flow cytometer and plotted versus the concentration of the test sample. EC₅₀ values were calculated using the 4 Parameter Logistic enabled by the Excel add-in XLfit (Activity Base software, ID Business Solutions, Ltd.).
# membrane bound TNF-alpha [13] = target: T4, membrane bound TNF-alpha; test: flow cytometry, mTNF-transfected Jurkat cells (geomean)
# Procedure: as §1
Binder,huIL23 MSA IC50 (recombinant human IL23 [1]) [nM],huIL23 MSA IC90 (recombinant human IL23 [1]) [nM],CynoIL23 MSA IC50 [2] [nM],CynoIL23 MSA IC90 [2] [nM],hIL23 pSTAT3 DB assay IC50 (recombinant human IL23 [3]) [pM],hIL23 pSTAT3 DB assay IC90 (recombinant human IL23 [3]) [pM],HeLa IL8 Cyno-TNF IC50 (cynomolgus TNF-alpha) [nM],HeLa IL8 Cyno-TNF IC90 (cynomolgus TNF-alpha) [nM],HeLa IL8 Hi-Hu-TNF IC50 (human TNF-alpha [4]) [nM],HeLa IL8 Hi-Hu-TNF IC90 (human TNF-alpha [4]) [nM],HeLa IL8 Lo-Hu-TNF IC50 (human TNF-alpha [4]) [nM],HeLa IL8 Lo-Hu-TNF IC90 (human TNF-alpha [4]) [nM],IL23A pSTAT3 (MG) IC50 (recombinant human IL23 [5]) [pM],IL23A pSTAT3 (MG) IC90 (recombinant human IL23 [5]) [pM],Dual Phospho DB-pSTAT3 IC50 (recombinant human IL23 [6]) [pM],Dual Phospho DB-pSTAT3 IC90 (recombinant human IL23 [6]) [pM],Dual Phospho Jurkat-pNf-Kb IC50 (human TNF-alpha [7]) [pM],Dual Phospho Jurkat-pNf-Kb IC90 (human TNF-alpha [7]) [pM],L929 TNF Cytotox IC50 (human TNF-alpha [8]) [nM],L929 TNF Cytotox IC90 (human TNF-alpha [8]) [nM],other results
Compound P (bispecific antibody) chain 1: not shown chain 2: EIVLTQSPATLSLSPGERATLSCRASQSVYSYLAWYQQKPGQAPRLLIYDASNRATGIPARFSGSGSGTDFTLTISSLEPEDFAVYYCQQRSNWPPFTFGPGTKVDIKGGGSGGGGQVQLVQSGAEVKKPGSSVKVSCKASGYTFTDQTIHWMRQAPGQGLEWIGYIYPRDDSPKYNENFKGKVTITADKSTSTAYMELSSLRSEDTAVYYCAIPDRSGYAWFIYWGQGTLVTVSSVEPKSSRTVAAPSVFIFPPSDEQLKSGTASVVCLLNNFYPREAKVQWKVDNALQSGNSQESVTEQDSKDSTYSLSSTLTLSKADYEKHKVYACEVTHQGLSSPVTKSFNRGEC,0.2,1.4,0.097,1.5,300,620,0.21,0.81,0.41,0.81,0.0092,0.036,69,480,340,630,290,340,0.0034,0.014,TNF-IL8 Whole Blood IC50 (human TNF-alpha [9]): 0.29 nM; TNF-IL8 Whole Blood IC90 (human TNF-alpha [9]): 0.42 nM
Compound F (bispecific antibody) chain 1: DIQMTQSPSSLSASVGDRVTITCKASRDVAIAVAWYQQKPGKVPKLLIYWASTRHTGVPSRFSGSGSRTDFTLTISSLQPEDVADYFCHQYSSYPFTFGSGTKLEIKGGGSGGGGQVQLVESGGGVVQPGRSLRLSCAASGFIFSSYAMHWVRQAPGNGLEWVAFMSYDGSNKKYADSVKGRFTISRDNSKNTLYLQMNSLRAEDTAVYYCARDRGIAAGGNYYYYGMDVWGQGTTVTVSSFNRGESASTKGPSVFPLAPSSKSTSGGTAALGCLVKDYFPEPVTVSWNSGALTSGVHTFPAVLQSSGLYSLSSVVTVPSSSLGTQTYICNVNHKPSNTKVDKRVEPKSCDKTHTCPPCPAPEAAGGPSVFLFPPKPKDTLYITREPEVTCVVVDVSHEDPEVKFNWYVDGVEVHNAKTKPREEQYNSTYRVVSVLTVLHQDWLNGKEYKCKVSNKALPAPIEKTISKAKGQPREPQVYTLPPSREEMTKNQVSLTCLVKGFYPSDIAVEWESNGQPENNYKTTPPVLDSDGSFFLYSKLTVDKSRWQQGNVFSCSVMHEALHNHYTQKSLSLSPGK chain 2: EIVLTQSPATLSLSPGERATLSCRASQSVYSYLAWYQQKPGQAPRLLIYDASNRATGIPARFSGSGSGTDFTLTISSLEPEDFAVYYCQQRSNWPPFTFGPGTKVDIKGGGSGGGGQVQLVQSGAEVKKPGSSVKVSCKASGYTFTDQTIHWMRQAPGQGLEWIGYIYPRDDSPKYNENFKGKVTITADKSTSTAYMELSSLRSEDTAVYYCAIPDRSGYAWFIYWGQGTLVTVSSVEPKSSRTVAAPSVFIFPPSDEQLKSGTASVVCLLNNFYPREAKVQWKVDNALQSGNSQESVTEQDSKDSTYSLSSTLTLSKADYEKHKVYACEVTHQGLSSPVTKSFNRGEC,0.17,2.3,0.069,1.5,260,600,0.19,0.74,0.35,0.66,0.0079,0.039,90,650,360,980,280,760,0.0025,0.01,TNF-IL8 Whole Blood IC50 (human TNF-alpha [9]): 0.31 nM; TNF-IL8 Whole Blood IC90 (human TNF-alpha [9]): 0.45 nM
"Control Antibody 3 (IL23 monoclonal antibody) (antibody, V domains shown) VH: QVQLVQSGAEVKKPGSSVKVSCKASGYTFTDQTIHWMRQAPGQGLEWIGYIYPRDDSPKYNENFKGKVTITADKSTSTAYMELSSLRSEDTAVYYCAIPDRSGYAWFIYWGQGTLVTVSS VL: DIQMTQSPSSLSASVGDRVTITCKASRDVAIAVAWYQQKPGKVPKLLIYWASTRHTGVPSRFSGSGSRTDFTLTISSLQPEDVADYFCHQYSSYPFTFGSGTKLEIK",0.053,0.35,0.017,0.24,160,310,,,,,,,35,140,89,230,,,,,"GEOMEAN IC50, IL-23-dependent STAT3 activation (luciferase) (recombinant human IL23 [10]): 0.0931 nM; GEOMEAN IC90, IL-23-dependent STAT3 activation (luciferase) (recombinant human IL23 [10]): 0.191 nM; IC50, IL-23-dependent STAT3 activation (DB-STAT3Luc10 luciferase) (recombinant human IL23 [11]): 0.0965 nM and 0.104 nM and 0.0803 nM"
Compound G (bispecific antibody) chain 1: EIVLTQSPATLSLSPGERATLSCRASQSVYSYLAWYQQKPGQAPRLLIYDASNRATGIPARFSGSGSGTDFTLTISSLEPEDFAVYYCQQRSNWPPFTFGPGTKVDIKGGGSGGGGQVQLVQSGAEVKKPGSSVKVSCKASGYTFTDQTIHWMRQAPGQGLEWIGYIYPRDDSPKYNENFKGKVTITADKSTSTAYMELSSLRSEDTAVYYCAIPDRSGYAWFIYWGQGTLVTVSSLGGGSGASTKGPSVFPLAPSSKSTSGGTAALGCLVKDYFPEPVTVSWNSGALTSGVHTFPAVLQSSGLYSLSSVVTVPSSSLGTQTYICNVNHKPSNTKVDKRVEPKSCDKTHTCPPCPAPEAAGGPSVFLFPPKPKDTLYITREPEVTCVVVDVSHEDPEVKFNWYVDGVEVHNAKTKPREEQYNSTYRVVSVLTVLHQDWLNGKEYKCKVSNKALPAPIEKTISKAKGQPREPQVYTLPPSREEMTKNQVSLTCLVKGFYPSDIAVEWESNGQPENNYKTTPPVLDSDGSFFLYSKLTVDKSRWQQGNVFSCSVMHEALHNHYTQKSLSLSPGK chain 2: DIQMTQSPSSLSASVGDRVTITCKASRDVAIAVAWYQQKPGKVPKLLIYWASTRHTGVPSRFSGSGSRTDFTLTISSLQPEDVADYFCHQYSSYPFTFGSGTKLEIKGGGSGGGGQVQLVESGGGVVQPGRSLRLSCAASGFIFSSYAMHWVRQAPGNGLEWVAFMSYDGSNKKYADSVKGRFTISRDNSKNTLYLQMNSLRAEDTAVYYCARDRGIAAGGNYYYYGMDVWGQGTTVTVSSLGGGSGRTVAAPSVFIFPPSDEQLKSGTASVVCLLNNFYPREAKVQWKVDNALQSGNSQESVTEQDSKDSTYSLSSTLTLSKADYEKHKVYACEVTHQGLSSPVTKSFNRGEC,,,,,,,,,,,,,,,,,,,,,"First test IC50, IL-23-dependent STAT3 activation (luciferase) (recombinant human IL23 [10]): 0.187 nM; GEOMEAN IC50, IL-23-dependent STAT3 activation (luciferase) (recombinant human IL23 [10]): 0.203 nM; GEOMEAN IC90, IL-23-dependent STAT3 activation (luciferase) (recombinant human IL23 [10]): 0.831 nM; IC50, IL-23-dependent STAT3 activation (DB-STAT3Luc10 luciferase) (recombinant human IL23 [11]): 0.22 nM; IC90, IL-23-dependent STAT3 activation (DB-STAT3Luc10 luciferase) (recombinant human IL23 [11]): 1.15 nM"
"Control antibody 2 (TNFa monoclonal antibody) (antibody, V domains shown, Monoclonal antibody) VH: QVQLVESGGGVVQPGRSLRLSCAASGFIFSSYAMHWVRQAPGNGLEWVAFMSYDGSNKKYADSVKGRFTISRDNSKNTLYLQMNSLRAEDTAVYYCARDRGIAAGGNYYYYGMDVWGQGTTVTVSS VL: EIVLTQSPATLSLSPGERATLSCRASQSVYSYLAWYQQKPGQAPRLLIYDASNRATGIPARFSGSGSGTDFTLTISSLEPEDFAVYYCQQRSNWPPFTFGPGTKVDIK",,,,,,,0.28,1.2,,,,,,,,,,,,,EC50 (membrane bound TNF-alpha [12]): 0.31 nM; EC50 (membrane bound TNF-alpha [13]): 0.23 nM
